Paper PMC4518712, “Regulation of the PI3K pathway through a p85α monomer–homodimer equilibrium” (eLife, 2015)
Where “and” joins values, the source holds several entries; their conditions need not be identical. Identical values can stand only once.

Assays:
Fyn SH3 (Homo sapiens) = Fyn SH3 (Homo sapiens) (UniProt P06241); conditions: cited from earlier work
[1] = target: GST-ΔSH3 p85α (residues 86–742, comprising PR1 to cSH2); assay: ITC; MicroCal ITC200, 25°C, 10 mM sodium phosphate pH 7.5, 150 mM NaCl, 5 mM DTT; PR1 peptide injected into p85α SH3 (100 μM) in the cell, or SH3 (400 μM) in the syringe and GST-ΔSH3 p85α in the cell
class I PXXP peptide = conditions: cited from earlier work
[2] = target: p85α SH3-PR1-BH-PR2 fragment (residues 1–333) (UniProt P27986); assay: MST; Alexa647-labelled protein at 20 nM, the same protein unlabelled titrated from 50,000 nM in 1:1 dilutions; 20 mM sodium phosphate pH 8, 150 mM NaCl, 2 mM EDTA, 5 mM DTT; dimerization
[3] = target: p85α SH3-PR1-BH-PR2 fragment (residues 1–333) (UniProt P27986); assay: AUC; sedimentation equilibrium, 20°C, samples at 1.0, 0.5 and 0.25 mg/ml, 11.8, 12.8, 13.8 krpm; global fit to a monomer–dimer–tetramer model (p85α, 1–333) or a monomer–dimer model (PR1-BH); constant of dimerization (dimer to monomers); reducing conditions
p85α SH3 (residues 1–81) = target: T1, p85α SH3 (residues 1–81) (UniProt P27986 1-81); assay: ITC; MicroCal ITC200, 25°C, 10 mM sodium phosphate pH 7.5, 150 mM NaCl, 5 mM DTT; PR1 peptide injected into p85α SH3 (100 μM) in the cell, or SH3 (400 μM) in the syringe and GST-ΔSH3 p85α in the cell; conditions: both partners purified
T1 construct: p85α residues 1–81; pET28b

[4] = target: the molecule itself; assay: AUC; sedimentation equilibrium, 20°C, samples at 1.0, 0.5 and 0.25 mg/ml, 11.8, 12.8, 13.8 krpm; global fit to a monomer–dimer–tetramer model (p85α, 1–333) or a monomer–dimer model (PR1-BH); constant of dimerization (dimer to monomers); reducing conditions
[5] = target: the molecule itself; assay: MST; Alexa647-labelled protein at 20 nM, the same protein unlabelled titrated from 50,000 nM in 1:1 dilutions; 20 mM sodium phosphate pH 8, 150 mM NaCl, 2 mM EDTA, 5 mM DTT; dimerization

T1 sequence (P27986 1-81): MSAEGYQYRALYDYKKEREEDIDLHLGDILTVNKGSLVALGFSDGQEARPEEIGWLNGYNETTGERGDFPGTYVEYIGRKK
Chain of Fyn SH3 (Homo sapiens) (P06241 79-146): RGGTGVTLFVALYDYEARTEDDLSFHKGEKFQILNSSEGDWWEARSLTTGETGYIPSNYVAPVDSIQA

Molecule: p85α PR1 PR1 (from UniProt P27986)
- Kd (Fyn SH3 (Homo sapiens)): 16 µM

Molecule: p85α SH3 (residues 1–81) (from UniProt P27986 1-81) (domain or fragment)
- Kd [1]: 16.8 µM
- dH [1]: -13.4 kJ/mol
- stoichiometry N [1]: 0.8

Molecule: p85α SH3 SH3 (from UniProt P27986)
- Kd (class I PXXP peptide): 40 µM

Molecule: p85α SH3-PR1-BH-PR2 fragment (residues 1–333) (from UniProt P27986 1-333) (domain or fragment)
- Kd [2]: 441 nM
- Kd [3]: 530 nM

B1: synthetic p85α PR1 peptide PKPRPPRPLPVAP (peptide)
peptide: PKPRPPRPLPVAP
notes: p85α PR1 region, begins at P87; source: synthetic peptide
- Kd (p85α SH3 (residues 1–81)): 23.3 µM and 24 µM
- dH (p85α SH3 (residues 1–81)): -4.9 kJ/mol
- stoichiometry N (p85α SH3 (residues 1–81)): 1.06

B2: p85α PR1-BH (residues 79–301) (domain or fragment, UniProt P27986 79-301, looked up)
chain: RKKISPPTPKPRPPRPLPVAPGSSKTEADVEQQALTLPDLAEQFAPPDIAPPLLIKLVEAIEKKGLECSTLYRTQSSSNLAELRQLLDCDTPSVDLEMIDVHVLADAFKRYLLDLPNPVIPAAVYSEMISLAPEVQSSEEYIQLLKKLIRSPSIPHQYWLTLQYLLKHFFKLSQTSSKNLLNARVLSEIFSPMLFRFSAASSDNTENLIKVIEILISTEWNER
modifications: Alexa647 label on the labelled copy (MST only)
notes: p85α residues 79–301; pET28b
- Kd [4]: 163 µM
- Kd [5]: 22.3 µM and 23 µM
